# From the nanobody polyreactivity screen of Harvey et al. (2022)
# Test: yeast display, Sf9 membrane polyspecificity reagent, FACS + sequencing; frameworks hold sequencing errors
# Outline: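 Galactose-induced (36–48 hours) yeast carrying a synthetic nanobody display library were exposed to 10% biotinylated, detergent-solubilized Sf9 membrane reagent at 4 °C for 1 hour. FACS followed streptavidin microbead enrichment, using low and high (top ~1%) gates for expression (anti-HA) and reagent binding (streptavidin). Colony PCR, MiSeq 2 × 250 sequencing and CDR-length filtering followed. Labels for polyreactivity reflect the gate of origin.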
row,Sequence,polyreactivity (PSR sort gate)
1,QVQLVESGGGLVQAGGSLRLSCAASGFTFPYNAMGWYRQAPGKERELVAAISWSGGSTYYADSVKGRFTISRDNAKNTVYLQMNSLKPEDTAVYYCAASYWRIPMEYWGQVTQVTVSS,high polyreactivity
2,QVQLVESGGGLVQAGGSLRLSCAASGFTFPYYAMGRYRQAPGKERELVAAITRSGGSTNYADSVKGRFTISRDNAKNTVYLQMNSLKPEDTAVYYCNAPPGYSSTRNGYWGQGTQVTVSS,high polyreactivity
3,QVQLVESGGGLVQAGGSLRLSCAASGFTFPYYAMGWYRPAPGKERELVAAISRNGGSTYYADSVKGRFTISRDNAKNTVYFQMNRLKPEDTAVYYCNKKWLGWADPSLDKRYDYWGQGTQVTVSS,high polyreactivity
4,QVQLVESGGGLVQAGGSLRLSCAASGFTFPYYAMGWYRQALGKERELVAGISRGGSTYYADSVKGRFTISRDNAKNTVYLQMNSLKPEDTAVYYCAADRYIGQYTYYYWGQGTQVTVSS,high polyreactivity
5,QVQLVESGGGLVQAGGSLRLSCAASGFTFPYYAMGWYRQAPGKERELVAAISSSGGRTYYADSVKGRFTISRDNAKNTVYLQMNSLKPEDTAVYYCAVRGKAYRRLRDYWGQGTQVTVSS,high polyreactivity
6,QVQLVESGGGLVQAGGSLRLSCAASGFTFPYYAQGWYRQAPGKETELVATISTGSGVSTYDADSVKGRFTISRDNAKNTVYLQMNSLKPEDTAVYYCAAVFGWRRYVTYDYWGQGTQVTVSS,low polyreactivity
7,QVQLVESGGGLVQAGGSLRLSCAASGFTFPYYTMGWYRQAPGKERELVAAITSSGGSTYYADSVKGRFTISRDNAKNTVYLQMNSLKPEDTAVYYCNAAVYAHRYIYGFDYWGQGTQVTVSS,high polyreactivity
8,QVQLVESGGGLVQAGGSLRLSCAASGFTFPYYTMGWYRQAPGKERELVATISYSGGRTYYADSVKGRFTISRDNAKNTVYLQMNSLKPEDTAVYYCNKVVRLQSRYDYWGQGTQVTVSS,high polyreactivity
9,QVQLVESGGGLVQAGGSLRLSCAASGFTFQAYAMGWYRQAPGKERELVAAIRSRGDSTYYADSVKGRFTISRDNAKNTVYLQMNSLKPEDTAVYYCNVLGYSYWGQGTQVTVSS,high polyreactivity
10,QVQLVESGGGLVQAGGSLRLSCAASGFTFQFNAMGWYRQAPGKERELVAAITWSGDSTYYADSVKGRFTISRDNAKNTVYLQMISLKPEDTAVYYCNADYGWVDTYTNYDYWGQGTQVTVSS,low polyreactivity
11,QVQLVESGGGLVQAGGSLRLSCAASGFTFQGNVMGWYRQAPGKERELVAVITSGGSTYYADSVKGRFTISRDNAKNTVYLQMNSLKPEDTAVYYCAARAYTWGPAGQVEKYYYWGQGTQVTVSS,high polyreactivity
12,QVQLVESGGGLVQAGGSLRLSCAASGFTFQYNAMGWYRQAPGKERELVAAITWTGTSTYADSVKGRFTISRDNATNTVYLQMNSLKPEDTAVYYCADSYYAPRWFRYDYWGQGTQVTVSS,low polyreactivity
13,QVQLVESGGGLVQAGGSLRLSCAASGFTFQYYPMGWYRQAPGKERELVAAISWSGGSTNYADSVKGRFTISRDNAKNTVYLQMNSLKPEDTAVYYCNAVHYYVEYDYWGQGTQVTVSS,high polyreactivity
14,QVQLVESGGGLVQAGGSLRLSCAASGFTFRANAMGWYRQAPGKERELVAAISQSGGRTYYADSVKGRFTISRDNAKNTVYLQMNSLKPEDTAVYYCAAPYSAKELYYRMDYWGQGTQVTVSS,high polyreactivity
15,QVQLVESGGGLVQAGGSLRLSCAASGFTFRANAMGWYRQAPGKERELVAVITGSGGRTYYADSVKGRFTISRDNAKNTVYLQMNSLKPEDTAVYYCNASGRKTNPYDYWGQGTQVTVSS,high polyreactivity
16,QVQLVESGGGLVQAGGSLRLSCAASGFTFRAYAMGWYRQAPGKASELVATISGRGGSTYYADSVKGRFPISRDNAKNTVYLQMNSLKPEDTAVYYCARRFWSEYVTGVGGYNFWGQGTQVTVSS,high polyreactivity
17,QVQLVESGGGLVQAGGSLRLSCAASGFTFRAYAMGWYRQAPGKEREFVAAISRRGGSTSYADSVKGRFTISRDNAKNTVYLQMNSLKPEDTAVYYCAATYQILTTSAHDSWGQGTQVTVSS,high polyreactivity
18,QVQLVESGGGLVQAGGSLRLSCAASGFTFRAYAMGWYRQAPGKERELVAAISTSGGSTYYADSVKGRFTISRDNAKNTVYLQMNSLKPEDTSVYYCAKRGLQGYWSPYNYWGQGTQVTVSS,high polyreactivity
19,QVQLVESGGGLVQAGGSLRLSCAASGFTFRDNAMGWYRQAPGKERELVAAISKSGGTTYYADSVKGRFTISRDNAKNTVYLQMNSLKPEDTAVYYCNAVNRYSGHSYYWGQGTQVTVSS,low polyreactivity
20,QVQLVESGGGLVQAGGSLRLSCAASGFTFRDYAMGWYRQAPGKERELVAAISRSGDSTYYADSVKGRFTISRDNAKNTVYLQMNSLKPEDTAVYYYAAKRRYTTYDYWGQGTQVTVSS,high polyreactivity
21,QVQLVESGGGLVQAGGSLRLSCAASGFTFRDYSMGWYRQAPGKERELVAAMSFSGGRTFYADSVKGRFTISRDNGKNTVYLQMNSLKPEDTAVYFCNAQYLTSRYYPRRNLDYWGQGTQVTVSS,high polyreactivity
22,QVQLVESGGGLVQAGGSLRLSCAASGFTFRFYAMGRYRQAPGKERELVAAISGSGGSTYYADSVKGRFTISRDNAKNTVFLQMNSLKPEDTAVYYCNAGRWLYWYDRSDYWGQGTQVTVSS,high polyreactivity

row,Sequence,polyreactivity (PSR sort gate)
1,QVQLVESGGGLVQAGGSLRLSCAASGFTFRFYAMGWYRQAPGKETELVAAISSSGSRTYYADSVKGRFTISRDTAKNTVYFQMHSLKPEDTAVYYCNTVTSQDRYDYWGQGTHVTVSS,high polyreactivity
2,QVQLVESGGGLVQAGGSLRLSCAASGFTFRFYVMGWYRQAPGKERELVAAISKRGASTSYADSVKGRFTISRDNAKNTVYLQMNSLKPEDTAVYYCAASAKRGEMGYWGQGTQVTVSS,high polyreactivity
3,QVQLVESGGGLVQAGGSLRLSCAASGFTFRGNAMGWYRQAPGKERELVAAITRRGGSTYYADSVKGRFTISRDNAKNTVYLQMNSLKPEDTAVYYCARDSPRPPQSSRMAYWGQGTQVTVSS,high polyreactivity
4,QVQLVESGGGLVQAGGSLRLSCAASGFTFRGNAMGWYRQAPGKERELVAAITSSDDSTYYADSVKGRFTISRDYAKNTVYLQMNSLKPEDTAVYYCAAEGVHYAGDYGTGYDYWGQGTQVTVSS,low polyreactivity
5,QVQLVESGGGLVQAGGSLRLSCAASGFTFRGNVMGWYRQAPGKERELVAGISSTGSGRTYYADSVKGRFTISRDNAKNTVYLQMNSLKPEDTAVYYCAASRTLRKHRYEYWGQGTQVTVSS,high polyreactivity
6,QVQLVESGGGLVQAGGSLRLSCAASGFTFRGYAMGWYRQAPGKERELVASITYRGGSTYYADSVKGRFTISRDNAKNTVYLQMNSLKPEDTAVSYCNAGFGGRRRQDAFIGTSIYDYWGQCTQVTVSS,low polyreactivity
7,QVQLVESGGGLVQAGGSLRLSCAASGFTFRHNTMGWYRQAPGKERELVAAISIGGRTYYADSVKGRFTISRDNAKNTVYLQMNSLKTEDSAVYYCANLSGGQSPGYDYWGQGTQVTVSW,high polyreactivity
8,QVQLVESGGGLVQAGGSLRLSCAASGFTFRHYAMGWYRQAPGKERELVAGITIRGTTYYADSVKGRFTISRDNAKNTVYLQMNSLKPEDTAVYYCAAAWRLGHLRFNSWGQGTQVTVSS,high polyreactivity
9,QVQLVESGGGLVQAGGSLRLSCAASGFTFRINAMGWYRQAPGKERELVAAISWSGGSTYYADSVKGRFTISRDNAKNTVYLQMNSLKPEDTAFYYCNKVQSSRYRSQRTFQYGYWGQGTQVTVSS,high polyreactivity
10,QVQLVESGGGLVQAGGSLRLSCAASGFTFRIYDMGWYRQAPGKERELVAAITNGGSTDYAYSVKGRFTISRDNAKNTVYLQMNSLKTEDNAVYYCAADVTYQVYDLVSVWYDYWGQGTQVTVSS,low polyreactivity
11,QVQLVESGGGLVQAGGSLRLSCAASGFTFRKNAKGWYRQAPGKERELVAAISSGSGSTYYADSVKGRFTISRDNAKNTVYLQMNSLKPEDNAVYYCNAEAYYTTGYPTSDVFDRYDYWGQGTQVTVSS,low polyreactivity
12,QVQLVESGGGLVQAGGSLRLSCAASGFTFRKNAMGWYRQAPGKERELVAAISSGTSTYYADSVKGRFTISRDNAKNTVYLQMNSLKPEDTAVYYCNAVSRKVYPGPMDYWGQGTQVTVSS,high polyreactivity
13,QVQLVESGGGLVQAGGSLRLSCAASGFTFRKYAMGWYRQAPGKERELVAGISWSGGTTYYADSVKGRFTISRDNAKNTVYLQMNSLKPEDTAVYYCNAKRVQVFAGYSYDYWGQGTQVTVSS,high polyreactivity
14,QVQLVESGGGLVQAGGSLRLSCAASGFTFRKYTMGWYRQAPGKERELVAAISSGFSTNYADSVKGRFTISRDNAKNSVYLQMNSLKPEDTAVYYCAARGGYYQGRYKYGYWGQGTQVTVSS,high polyreactivity
15,QVQLVESGGGLVQAGGSLRLSCAASGFTFRLYTMGWYRQAPGKDRELVAGISTSGGSTYYADSVKGRFTISRDNAKNTVYLQMNSLKPEDTAVYYCAAQAFTSYDYWGQGTQVTVSS,high polyreactivity
16,QVQLVESGGGLVQAGGSLRLSCAASGFTFRLYTMGWYRQAPGKERELVAAITYSGDSTYYADSVKGRFTISRDNAKNTVYLQMNSLKPEDTAVYYCAARKYYARYYWGQGTQVTVSS,high polyreactivity
17,QVQLVESGGGLVQAGGSLRLSCAASGFTFRLYVMGWYREAPGTERELVAALSSRGGSTYYADSVKGRFTISRDNAKYTVYLQMNRLKPDDTAFYYCAADRPRCRETVDYWGHGTQVTVSS,high polyreactivity
18,QVQLVESGGGLVQAGGSLRLSCAASGFTFRNYAMGWYRQAPGKEREFVAAISFSGGRTYYADSVKGRFTISRDNAKITVYLQMNSLKPEDTAVYFCAKKSYSKYEYWGQGTQVTVSS,low polyreactivity
19,QVQLVESGGGLVQAGGSLRLSCAASGFTFRNYAMGWYRQAPGKERELVAVIDWSGGRTYYADSVKGRFTISRDNAKNTVYLQMNSLKPEDTAVYYCNAVYGYRAYGGYGYWGQGTQVTVSS,high polyreactivity
20,QVQLVESGGGLVQAGGSLRLSCAASGFTFRQNAMGWYRQAPGKERELVAAISYSGGRTYYADSVKGRFTISRDNEMNTVYLQMNRLKPEDTAVYYCAVTYGIDYGYEYWGQGTQVTVSS,high polyreactivity
21,QVQLVESGGGLVQAGGSLRLSCAASGFTFRRNAMGWYRQAPGKEREFVAAITRSGGSTYYADSVKGRFTISRDNAKNTVYLQMNSLKPEDTAVYYCAADLPRWGSYGYGKMDHWGQGTQVTVSS,high polyreactivity
